From the Immune Epitope Database (IEDB) come the findings set out here.

Test [1] addresses HLA-B*08:01. The experiment in a line: IEDB peptide-MHC binding, purified MHC/competitive/radioactivity; filed as Kd, often an IC50 or EC50 that approximates it; ≥ and ≤ were set here for values at or beyond the usual limits of such assays.
Test [2] has as its target HLA-A*11:01. Kind of test: IEDB peptide-MHC binding, purified MHC/competitive/fluorescence; ≥ and ≤ were set here for values at or beyond the usual limits of such assays.
The target in test [3] is HLA-A*24:02. The test is described as above. The note with it: source organism: Zaire ebolavirus.
The target of test [4] is HLA-A*02:01. The test is described as above. The note with it: source organism: Zaire ebolavirus.
Test [5] has as its target HLA-A*02:02. Kind of test: IEDB peptide-MHC binding, purified MHC/competitive/radioactivity; filed as Kd, often an IC50 or EC50 that approximates it; ≥ and ≤ were set here for values at or beyond the usual limits of such assays.
The target of test [6] is HLA-A*02:01. The description is as above.
The target in test [7] is HLA-A*68:02. The test is described as above.
Test [8] addresses HLA-A*02:03. Described as above. The note with it: source organism: Trypanosoma cruzi.
The target of test [9] is HLA-A*02:06. Described as above.
Test [10] addresses HLA-A*26:01. The experiment in a line: IEDB peptide-MHC binding, purified MHC/direct/fluorescence; filed as Kd, often an IC50 or EC50 that approximates it; ≥ and ≤ were set here for values at or beyond the usual limits of such assays.
The target in test [11] is HLA-A*11:01. The test is described as above.
In test [12] the target is HLA-B*07:02. The test is described as above.
Test [13] deals with HLA-A*03:01. Described as above.
In test [14] the target is HLA-B*27:05. The description is as above.
Test [15] addresses HLA-A*01:01. The test is described as above.
The target in test [16] is HLA-A*02:01. The test is described as above.
Test [17] deals with HLA-A*31:01. The description is as above. The note with it: source organism: Pseudomonas aeruginosa UCBPP-PA14.
The target of test [18] is HLA-B*15:01. The description is as above.
Test [19] deals with HLA-A*69:01. Described as above.
Test [20] addresses HLA-B*08:01. The description is as above.
The target in test [21] is HLA-B*58:01. The test is described as above.
Test [22] has as its target HLA-A*03:01. The experiment in a line: IEDB peptide-MHC binding, purified MHC/competitive/fluorescence; filed as Kd, often an IC50 or EC50 that approximates it; ≥ and ≤ were set here for values at or beyond the usual limits of such assays.
Test [23] addresses HLA-B*15:01. The test is described as above. The note with it: source organism: Escherichia coli F11.
In test [24] the target is HLA-A*33:01. Kind of test: IEDB peptide-MHC binding, purified MHC/competitive/radioactivity; filed as Kd, often an IC50 or EC50 that approximates it; ≥ and ≤ were set here for values at or beyond the usual limits of such assays. As to conditions: source organism: Dengue virus 2 Peru/IQT2913/1996.
For test [25], the target named is HLA-A*03:01. The description is as above. As to conditions: source organism: Dengue virus 2 Peru/IQT2913/1996.
Test [26] concerns the target HLA-A*31:01. The description is as above. As to conditions: source organism: Dengue virus 2 Peru/IQT2913/1996.
For test [27], the target named is HLA-A*68:01. The description is as above. The note with it: source organism: Dengue virus 2 Peru/IQT2913/1996.
The target of test [28] is HLA-B*27:03. The experiment in a line: IEDB peptide-MHC binding, purified MHC/competitive/fluorescence; filed as Kd, often an IC50 or EC50 that approximates it; ≥ and ≤ were set here for values at or beyond the usual limits of such assays. The note with it: source organism: Pan troglodytes.
In test [29] the target is HLA-A*02:01. Described as above. As to conditions: source organism: Pan troglodytes.
Test [30] addresses HLA-B*46:01. Kind of test: IEDB peptide-MHC binding, purified MHC/direct/fluorescence; filed as Kd, often an IC50 or EC50 that approximates it; ≥ and ≤ were set here for values at or beyond the usual limits of such assays.
Test [31] addresses HLA-B*40:01. The description is as above. As to conditions: source organism: Giardia lamblia ATCC 50803.
The mark [32] stands for this setting: source organism: Sudan ebolavirus.
[33] abbreviates: source organism: Zaire ebolavirus.
The mark [34] stands for this setting: source organism: Trypanosoma cruzi.
Setting [35] is: source organism: Dengue virus 3 Martinique/1243/1999.
The mark [36] stands for this setting: source organism: Pseudomonas aeruginosa UCBPP-PA14.
Setting [37] is: source organism: Dengue virus 4 Philippines/H241/1956.
[38] abbreviates: source organism: Vaccinia virus WR.
Setting [39] is: source organism: Dengue virus 2 Jamaica/1409/1983.
The mark [40] stands for this setting: source organism: Vaccinia virus Copenhagen.
Setting [41] is: source organism: Hepatitis C virus (isolate 1).
Where [42] appears, read: source organism: Mammarenavirus lassaense.
[43] abbreviates: source organism: Giardia lamblia ATCC 50803.

Broadly, the Kd is the equilibrium constant for the complex coming apart. Take TKTTAKEVAL: the dissociation constant Kd in test [1] (source organism: Dengue virus 4 Dominica/814669/1981) was 4000 nM.

A word on the IC50: it is the midpoint of a concentration-inhibition curve. Read a high IC50 as lower potency. Turning to PENITTAVK, the IC50 in [2] (setting [32]) was not below 178000 nM.

THNTPVYKL: the IC50 was 62400 nM in [2] (setting [33]), 17600 nM in test [3] and not below 735000 nM in [4].

Turning to SLNRNFTLV, the Kd in test [5] (setting [34]) stood at 0.143 nM; in test [6] (setting [34]), 23.6 nM; in test [7] (setting [34]), 227 nM; in test [8] it was 0.0957 nM; in test [9] (setting [34]), 0.69 nM.

For IKRRLRTLIL, in [1] (setting [35]), the Kd was determined as 185 nM.

Turning to ANPGRVKDW, the Kd in test [10] (setting [36]), in test [11] (setting [36]), in test [12] (setting [36]), in [13] (setting [36]), in test [14] (setting [36]) and in test [15] (setting [36]) was not below 20000 nM each time. Further, the dissociation constant (Kd) in test [16] (setting [36]), in test [17], in test [18] (setting [36]), in test [19] (setting [36]), in test [20] (setting [36]) and in test [21] (setting [36]) was not below 20000 nM in each case.

As for HALNELPESL, the Kd in [1] (setting [37]) was 3740 nM.

For the sequence SEKMRRERA, the Kd in test [1] (setting [38]) came to 169 nM.

Take MQSLKFNRA: in [1] (setting [38]), the dissociation constant (Kd) worked out at 307 nM.

With NPKTPKYKF, the values for the dissociation constant (Kd) in [11] (source organism: SARS-CoV1), in test [12] (source organism: SARS-CoV1) and in [20] (source organism: SARS-CoV1) were 3960 nM, not below 28600 nM and 1150 nM, respectively.

Regarding IKLTVVVGDI, in test [1] (setting [35]), the Kd was 1050 nM.

On to SSTSRFVMF, for which, in test [1] (setting [38]), the dissociation constant (Kd) turned out to be 1100 nM.

On to LMWKQITPEL, for which, in [1] (setting [39]), the Kd stood at 1230 nM.

For LMRRGDLPV, the equilibrium dissociation constant (Kd) in test [1] (setting [39]) came to 17.8 nM.

Regarding TLTSDDLLI, the dissociation constant (Kd) in [6] (source organism: Lassa virus Josiah) worked out at 4170 nM.

Take IRANNNRLP: the IC50 in test [2] (setting [38]) was not below 208000 nM.

Take YSFSMFMSL: the Kd in test [1] (setting [38]) is 146 nM.

MVYKLWFKY showed a Kd in [22] (source organism: Entamoeba dispar SAW760) of 14100 nM.

On to GIAACLMTY, for which the Kd in test [22] (source organism: Escherichia coli F11) was not below 20000 nM; in test [23] it was 3000 nM.

Sequence SVYGLMGFK yielded an equilibrium dissociation constant (Kd) in test [22] (source organism: Myxoma virus) of 9.2 nM.

In the case of NNSWKFNSE, the dissociation constant Kd in test [1] (setting [38]) is 129 nM.

Regarding LLILCVTQVL, the dissociation constant Kd in test [1] (setting [39]) stood at 979 nM.

For the sequence LFMSHVKSV, the results for the dissociation constant Kd in test [16] (setting [40]), in test [18] (setting [40]) and in test [1] (setting [38]) were 1750 nM, 15200 nM and 3.07 nM, respectively.

Consider LLLMRTTWA, for which, in [1] (setting [37]), the Kd was determined as 18.5 nM.

In turn, KDAWLSLPK had a Kd in test [22] (source organism: Vibrio cholerae) not below 20000 nM.

With MLINRFTMR, the dissociation constant Kd stood at 20.4 nM in test [24]; 57 nM in test [25]; 4.29 nM in test [26]; 906 nM in [1] (source organism: Dengue virus 2 Peru/IQT2913/1996); 17.7 nM in test [27].

Take YRYLRHGKL: the Kd was 78.6 nM in [14] (source organism: SARS-CoV1) and 104 nM in test [20] (source organism: SARS-CoV1).

KFFPSSSYRR gave a dissociation constant (Kd) in test [22] (source organism: Influenza A virus (A/Fort Monmouth/1/1947-mouse adapted(H1N1))) of 4320 nM.

Take ELQAALARV: the dissociation constant Kd in [5] (source organism: Homo sapiens) was 117 nM; in test [6] (source organism: Homo sapiens), 558 nM; in [7] (source organism: Homo sapiens), 2.06 nM; in [9] (source organism: Homo sapiens), 40.5 nM.

Take RVLTARKTV: the dissociation constant (Kd) is not below 20000 nM in [28], not below 20000 nM in test [29] and 418 nM in test [12] (source organism: Ovis aries).

Consider ILIEGIFFV, for which the Kd in [6] (source organism: Human alphaherpesvirus 3) turned out to be 0.03 nM.

For EARVEFGPL, the Kd in test [1] (setting [38]) amounted to 177 nM.

Consider VLDQIDKNK, for which the half-maximal inhibitory concentration (IC50) in test [2] (setting [38]) is not below 71200 nM.

Regarding RAAGLQDCT, in test [6] (setting [41]), the Kd was not below 50000 nM.

With SRFTPQFLL, the half-maximal inhibitory concentration (IC50) is 45400 nM in test [2] (setting [33]), 1730 nM in test [3] and not below 106000 nM in test [4].

For LYQPSSGCY, the equilibrium dissociation constant (Kd) in [30] (setting [42]) was not below 20000 nM; in test [18] (setting [42]), 1070 nM.

As for AAGLQDCTMLV, the dissociation constant (Kd) in test [6] (setting [41]) is not below 50000 nM.

Consider PRRCLKPVIL, for which the Kd in test [1] (source organism: Dengue virus 1 Brazil/97-11/1997) turned out to be 2720 nM.

Regarding RKNGKKVIQL, the Kd in test [1] (setting [39]) came to 161 nM.

In turn, LSNTTGRLI came in with an IC50 in test [2] (setting [32]) of 55500 nM.

AMFEEQNQW displayed a Kd in test [30] (source organism: West Nile virus) not below 20000 nM.

Turning to LLGLWGFATA, the Kd in test [5] (setting [34]) was 50.5 nM; in test [6] (setting [34]) it was 65.1 nM; in test [7] (setting [34]) it was not below 49600 nM; in [8], 1.89 nM; in test [9] (setting [34]) it was 61.3 nM.

As for ELLRPTTVV, the dissociation constant Kd in test [5] (setting [34]) was found to be 6010 nM; in test [6] (setting [34]) it was 6710 nM; in [7] (setting [34]), 91.8 nM; in [8], 1200 nM; in [9] (setting [34]), 1880 nM.

Consider YTDDYPMYK, for which the Kd in test [10] (setting [43]) is not below 20000 nM; in test [11] (setting [43]), 40 nM; in test [12] (setting [43]), not below 20000 nM; in test [13] (setting [43]), 359 nM; in test [14] (setting [43]) it was not below 20000 nM; in test [15] (setting [43]), 18.9 nM. Further, the Kd was not below 20000 nM in test [31]; not below 20000 nM in [16] (setting [43]); not below 20000 nM in test [18] (setting [43]); 126 nM in test [19] (setting [43]); not below 20000 nM in test [20] (setting [43]); not below 20000 nM in [21] (setting [43]).
